Bridge positions count the residues as written; N and C are the ends. Ends that are not written are not given here.

The source of these data is patent US6723841.

Common to all, as to test: cell-based or functional assay
Test [1] addresses human CRF1 receptor (human) (UniProt P34998).
Test [2] has as its target T1, human CRF2α receptor (human) (UniProt Q13324).
T1 sequence: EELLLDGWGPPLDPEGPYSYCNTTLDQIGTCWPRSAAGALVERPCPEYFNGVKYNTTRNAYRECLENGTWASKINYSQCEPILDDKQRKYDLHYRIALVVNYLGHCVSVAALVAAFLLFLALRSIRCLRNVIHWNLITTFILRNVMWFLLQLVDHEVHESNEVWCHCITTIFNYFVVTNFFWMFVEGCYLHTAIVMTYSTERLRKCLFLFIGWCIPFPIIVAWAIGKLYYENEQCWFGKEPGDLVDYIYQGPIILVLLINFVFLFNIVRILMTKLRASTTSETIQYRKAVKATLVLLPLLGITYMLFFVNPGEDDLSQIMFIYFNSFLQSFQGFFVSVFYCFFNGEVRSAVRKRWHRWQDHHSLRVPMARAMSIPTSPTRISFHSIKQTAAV

Another test has as its target rat CRF2β receptor (rat).

Sequence of human CRF1 receptor (human) (P34998 24-415): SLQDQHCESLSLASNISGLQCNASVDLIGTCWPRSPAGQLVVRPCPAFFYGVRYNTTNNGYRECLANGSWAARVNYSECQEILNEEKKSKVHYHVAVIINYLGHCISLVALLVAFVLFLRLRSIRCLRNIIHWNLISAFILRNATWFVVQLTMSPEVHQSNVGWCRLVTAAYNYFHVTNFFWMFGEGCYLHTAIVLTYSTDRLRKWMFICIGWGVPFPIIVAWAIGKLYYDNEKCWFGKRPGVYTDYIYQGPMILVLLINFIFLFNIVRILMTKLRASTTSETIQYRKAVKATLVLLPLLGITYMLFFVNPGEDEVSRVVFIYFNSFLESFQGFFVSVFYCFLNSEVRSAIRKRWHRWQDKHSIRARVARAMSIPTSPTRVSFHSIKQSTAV

With HSDAVFTDNYTRLRKQMAVKKYLNSILN (peptide, UniProt P01282 125-152, looked up, species assumed, ends and bridges not checked) [VIP], the EC50 of adenylate cyclase stimulation (cAMP) in test [1] and in test [2] was greater than 1000 nM each time.

As for CYFQNCPRG-NH2 (peptide, UniProt P01185 20-28, looked up, species assumed, disulfide 1-6; ends not checked) [AVP], the EC50 of adenylate cyclase stimulation (cAMP) in test [1] and in test [2] was greater than 1000 nM throughout.

With QGPPISIDLSLELLRKMIEIEKQEKEKQQAANNRLLLDTI (peptide, UniProt P01144 1-40, looked up) [Sauvagine], the EC50 of adenylate cyclase stimulation (cAMP) in test [1] came to 3 nM; in test [2] it was 0.5 nM; with rat CRF2β receptor (rat), 0.4 nM.

SQEPPISLDLTFHLLREVLEMTKADQLAQQAHSNRKLLDIA (peptide, UniProt P01142 148-188, looked up, ends and bridges not checked) [ovine CRF]: the figures for the EC50 of adenylate cyclase stimulation (cAMP) in test [1] and in test [2] were 10 nM and 80 nM, respectively.

With SQEPPISLDLTFHLLREVLEMTKADQLAQQAHNNRKLLDIA (peptide, UniProt Q95MI6 148-188, looked up) [bovine CRF], the EC50 of adenylate cyclase stimulation (cAMP) in test [1] turned out to be 30 nM; in test [2], 100 nM.

In the case of SQEPPISLDLTFHLLREVLEMTKADQLAQQAHNNRKLLDIA-OH (peptide, UniProt Q95MI6 148-188, looked up) [deamidated bovine CRF], the results for the EC50 of adenylate cyclase stimulation (cAMP) in test [1] and in test [2] were 1000 nM and greater than 1000 nM, respectively.

Consider ISLDLTFHLLREVLEMARAEQLAQQAHS (peptide, UniProt P06850 159-186, looked up) [r/hCRF(6-33)], for which the EC50 of adenylate cyclase stimulation (cAMP) in test [1] and in test [2] was greater than 1000 nM in each case.

SEEPPISLDLTFHLLREVLEMARAEQLAQQAHSNRKLMEII (peptide, UniProt P06850 154-194, looked up) [rat/human CRF]: the results for the EC50 of adenylate cyclase stimulation (cAMP) (in test [1]; in test [2]; with rat CRF2β receptor (rat)) were 4 nM, 20 nM and 1 nM, respectively.

For the molecule YADAIFTNSYRKVLGQLSARKLLQDIMSRQQGESNQERGARARL (peptide, UniProt P01286 32-75, looked up, ends and bridges not checked) [hGRF], the EC50 of adenylate cyclase stimulation (cAMP) in test [1] and in test [2] was greater than 1000 nM each time.

For the molecule FHLLREVLEMARAEQLAQQAHSNRKLMEII (peptide, UniProt P06850 165-194, looked up, d-Phe (position not given)) [d-Phe r/hCRF(12-41)], the EC50 of adenylate cyclase stimulation (cAMP) in test [1] and in test [2] was greater than 1000 nM each time.
